Measurements taken from paper PMC4156074 (2014).

Biological target: Full-length human plasma kallikrein, activated form (human, UniProt P03952 20-390; P03952 391-638)
Experiment: apparent Ki

Full-length human plasma kallikrein, activated form, sequence (P03952 20-390, chain 1 of 2): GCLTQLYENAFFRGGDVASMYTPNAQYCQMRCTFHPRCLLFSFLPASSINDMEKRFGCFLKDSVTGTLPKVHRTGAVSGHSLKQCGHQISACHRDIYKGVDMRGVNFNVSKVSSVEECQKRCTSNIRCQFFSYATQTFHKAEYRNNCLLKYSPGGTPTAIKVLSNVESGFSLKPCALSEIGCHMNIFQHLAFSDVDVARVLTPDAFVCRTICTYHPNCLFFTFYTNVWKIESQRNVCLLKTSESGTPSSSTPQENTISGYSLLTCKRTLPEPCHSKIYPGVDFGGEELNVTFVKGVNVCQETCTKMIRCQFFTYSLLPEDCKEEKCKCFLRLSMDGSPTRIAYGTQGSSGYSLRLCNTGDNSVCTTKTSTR
Full-length human plasma kallikrein, activated form, sequence (P03952 391-638, chain 2 of 2): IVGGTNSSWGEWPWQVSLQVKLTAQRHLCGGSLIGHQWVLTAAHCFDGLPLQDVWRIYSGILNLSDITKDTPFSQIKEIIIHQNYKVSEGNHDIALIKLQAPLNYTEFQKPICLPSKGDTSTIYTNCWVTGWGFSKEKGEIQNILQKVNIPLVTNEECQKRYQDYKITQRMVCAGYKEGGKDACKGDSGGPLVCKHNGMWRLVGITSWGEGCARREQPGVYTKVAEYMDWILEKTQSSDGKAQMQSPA

Ki: 5.39 nM
B1: Fab M0162-A04 (lead Fab, parent of the affinity maturation) (Fab, V domains shown)
VH: EVQLLESGGGLVQPGGSLRLSCAASGFTFSHYIMMWVRQAPGKGLEWVSGIYSSGGITVYADSVKGRFTISRDNSKNTLYLQMNSLRAEDTAVYYCAYRRTGIPRRDAFDIWGQGTMVTVSS
VL: DIQMTQSPSTLSASVGDRVTITCRASQSISSWLAWYQQKPGKAPNLLIYKASTLESGVPSRFSGSGSGTEFTLTISSLQPDDFATYYCQQYNTYWTFGQGTKVEIK
